# In article PMC9482650, “Quantitative fragmentomics allow affinity mapping of interactomes” (Nature Communications, 2022):
# T1: PARD3B_1, Q8TEW8
# T1 sequence (Q8TEW8 196-299, limits assumed, looked up): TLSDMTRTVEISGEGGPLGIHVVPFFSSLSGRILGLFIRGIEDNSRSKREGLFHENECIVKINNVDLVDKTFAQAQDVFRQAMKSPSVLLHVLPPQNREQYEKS
# T2: SHANK1, Q9Y566
# T2 sequence (Q9Y566 658-767, limits assumed, looked up): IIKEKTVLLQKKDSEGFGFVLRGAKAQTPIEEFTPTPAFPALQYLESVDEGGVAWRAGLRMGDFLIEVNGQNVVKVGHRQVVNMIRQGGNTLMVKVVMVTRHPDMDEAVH
# T3: DFNB31_1, Q9P202
# T3 sequence (Q9P202 135-233, limits assumed, looked up): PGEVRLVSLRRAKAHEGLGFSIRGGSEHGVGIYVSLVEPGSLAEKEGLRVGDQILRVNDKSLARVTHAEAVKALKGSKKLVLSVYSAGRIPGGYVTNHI
# T4: PDZD7_3, Q9H5P4
# T4 sequence (Q9H5P4 857-944, limits assumed, looked up): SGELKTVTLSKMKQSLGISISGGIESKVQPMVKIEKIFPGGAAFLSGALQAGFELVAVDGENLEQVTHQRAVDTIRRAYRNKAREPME
# T5: SNTG2, Q9NY99
# T5 sequence (Q9NY99 68-166, limits assumed, looked up): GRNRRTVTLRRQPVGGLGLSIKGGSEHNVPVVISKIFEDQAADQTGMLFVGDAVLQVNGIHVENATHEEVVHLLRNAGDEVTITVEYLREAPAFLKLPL
# T6: LNX2_2, Q8N448
# T6 sequence (Q8N448 334-432, limits assumed, looked up): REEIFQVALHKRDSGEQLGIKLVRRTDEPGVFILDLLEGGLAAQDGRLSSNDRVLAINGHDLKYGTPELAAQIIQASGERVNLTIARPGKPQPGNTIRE
# T7: PTPN13_1, Q12923
# T7 sequence (Q12923 1088-1188, limits assumed, looked up): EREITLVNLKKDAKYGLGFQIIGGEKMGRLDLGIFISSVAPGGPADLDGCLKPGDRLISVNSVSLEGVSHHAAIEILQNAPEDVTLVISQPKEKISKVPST
# T8: GRIP1_4, Q9Y3R0
# T8 sequence (Q9Y3R0 467-571, limits assumed, looked up): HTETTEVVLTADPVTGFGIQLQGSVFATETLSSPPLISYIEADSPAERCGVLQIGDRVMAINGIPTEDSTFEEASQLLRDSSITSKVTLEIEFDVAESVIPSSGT
# T9: SIPA1L2, Q9P2F8
# T9 sequence (Q9P2F8 945-1036, limits assumed, looked up): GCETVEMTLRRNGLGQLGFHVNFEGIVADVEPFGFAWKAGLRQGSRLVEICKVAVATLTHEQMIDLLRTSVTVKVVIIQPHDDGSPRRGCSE
# T10: MPP2, Q14168
# T10 sequence (Q14168 180-250, limits assumed, looked up): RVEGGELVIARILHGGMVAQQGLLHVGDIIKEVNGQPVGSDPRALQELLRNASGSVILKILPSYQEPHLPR
# T11: DFNB31_2, Q9P202
# T11 sequence (Q9P202 274-371, limits assumed, looked up): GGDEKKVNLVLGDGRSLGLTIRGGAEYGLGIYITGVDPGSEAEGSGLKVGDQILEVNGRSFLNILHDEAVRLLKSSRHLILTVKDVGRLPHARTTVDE
# T12: CARD11, Q9BXL7
# T12 sequence (Q9BXL7 662-765, limits assumed, looked up): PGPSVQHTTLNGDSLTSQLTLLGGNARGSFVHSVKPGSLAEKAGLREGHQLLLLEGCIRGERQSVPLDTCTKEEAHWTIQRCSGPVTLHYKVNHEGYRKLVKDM
# Experiments:
# Test in all cases: holdup assay
# Parameters in all cases: key: below the threshold = too weak to quantify, mostly under pKd 3.1 to 4
# Details in all cases: plain residues with an end cap or a label only (N-terminal biotin on a linker: ado-ado)
# PARD3B_1, Q8TEW8 = molecular target: T1, PARD3B_1, Q8TEW8
# GIPC2, Q8TF65 = molecular target: GIPC2, Q8TF65
# GIPC2, Q8TF65, sequence (Q8TF65 112-203): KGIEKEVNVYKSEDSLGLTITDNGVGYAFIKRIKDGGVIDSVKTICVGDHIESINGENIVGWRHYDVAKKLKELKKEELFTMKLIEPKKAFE
# SHANK1, Q9Y566 = molecular target: T2, SHANK1, Q9Y566
# MAGI2_6, Q86UL8 = molecular target: MAGI2_6, Q86UL8
# MAGI2_6, Q86UL8, sequence (Q86UL8 1141-1229): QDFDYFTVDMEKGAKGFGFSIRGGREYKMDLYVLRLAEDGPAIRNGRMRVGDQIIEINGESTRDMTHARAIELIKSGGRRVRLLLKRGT
# SCRIB_3, Q14160 = molecular target: SCRIB_3, Q14160
# SCRIB_3, Q14160, sequence (Q14160 999-1103): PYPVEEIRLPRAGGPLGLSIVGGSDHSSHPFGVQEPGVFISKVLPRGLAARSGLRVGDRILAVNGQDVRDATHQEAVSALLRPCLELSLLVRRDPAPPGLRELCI
# DFNB31_1, Q9P202 = molecular target: T3, DFNB31_1, Q9P202
# NHERF2_2, Q15599 = molecular target: NHERF2_2, Q15599
# NHERF2_2, Q15599, sequence (Q15599 142-238): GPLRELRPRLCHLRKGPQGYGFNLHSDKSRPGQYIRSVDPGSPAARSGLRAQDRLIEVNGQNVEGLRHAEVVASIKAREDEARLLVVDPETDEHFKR
# LNX1_1, Q8TBB1 = molecular target: LNX1_1, Q8TBB1
# LNX1_1, Q8TBB1, sequence (Q8TBB1 261-371): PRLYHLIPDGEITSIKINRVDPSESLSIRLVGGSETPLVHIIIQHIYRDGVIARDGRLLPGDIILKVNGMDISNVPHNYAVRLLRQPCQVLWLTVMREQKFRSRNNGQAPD
# PDZD7_3, Q9H5P4 = molecular target: T4, PDZD7_3, Q9H5P4
# DLG4_1, P78352 = molecular target: DLG4_1, P78352
# DLG4_1, P78352, sequence (P78352 62-152): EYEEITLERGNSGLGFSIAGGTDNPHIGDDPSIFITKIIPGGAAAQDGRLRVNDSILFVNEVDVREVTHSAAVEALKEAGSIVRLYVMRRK
# Inadl_9, Q8NI35 = molecular target: Inadl_9, Q8NI35
# Inadl_9, Q8NI35, sequence (Q8NI35 1530-1615): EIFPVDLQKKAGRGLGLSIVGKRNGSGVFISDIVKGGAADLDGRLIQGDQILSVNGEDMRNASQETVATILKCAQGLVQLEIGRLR
# SNTG2, Q9NY99 = molecular target: T5, SNTG2, Q9NY99
# GRASP, Q7Z6J2 = molecular target: GRASP, Q7Z6J2
# GRASP, Q7Z6J2, sequence (Q7Z6J2 96-193): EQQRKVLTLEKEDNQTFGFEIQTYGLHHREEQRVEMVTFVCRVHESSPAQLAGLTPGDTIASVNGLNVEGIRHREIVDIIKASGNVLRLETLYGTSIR
# LNX2_2, Q8N448 = molecular target: T6, LNX2_2, Q8N448
# LDB3, O75112 = molecular target: LDB3, O75112
# LDB3, O75112, sequence (O75112 1-94): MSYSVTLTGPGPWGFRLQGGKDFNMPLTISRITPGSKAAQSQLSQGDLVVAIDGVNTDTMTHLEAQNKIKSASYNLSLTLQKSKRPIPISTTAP
# PTPN13_1, Q12923 = molecular target: T7, PTPN13_1, Q12923
# IL16_1, Q14005 = molecular target: IL16_1, Q14005
# IL16_1, Q14005, sequence (Q14005 210-306): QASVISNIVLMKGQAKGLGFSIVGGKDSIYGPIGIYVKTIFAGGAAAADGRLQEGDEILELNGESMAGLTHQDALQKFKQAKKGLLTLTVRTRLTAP
# GRIP1_4, Q9Y3R0 = molecular target: T8, GRIP1_4, Q9Y3R0
# SIPA1L2, Q9P2F8 = molecular target: T9, SIPA1L2, Q9P2F8
# MPP2, Q14168 = molecular target: T10, MPP2, Q14168
# GRID2IP_2, A4D2P6 = molecular target: GRID2IP_2, A4D2P6
# GRID2IP_2, A4D2P6, sequence (A4D2P6 272-370): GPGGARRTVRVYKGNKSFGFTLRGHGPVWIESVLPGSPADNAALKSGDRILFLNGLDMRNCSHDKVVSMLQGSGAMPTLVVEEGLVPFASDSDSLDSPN
# DFNB31_2, Q9P202 = molecular target: T11, DFNB31_2, Q9P202
# NHERF4_1, Q86UT5-2 = molecular target: NHERF4_1, Q86UT5-2
# NHERF4_1, Q86UT5-2, sequence (Q86UT5 other isoform, or with tags, fused parts or gaps): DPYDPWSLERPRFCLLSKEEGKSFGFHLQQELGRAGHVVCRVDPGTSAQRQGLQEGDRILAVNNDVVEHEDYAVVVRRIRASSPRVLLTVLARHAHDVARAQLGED
# CARD11, Q9BXL7 = molecular target: T12, CARD11, Q9BXL7
# MAGI1_1, Q96QZ7 = molecular target: MAGI1_1, Q96QZ7
# MAGI1_1, Q96QZ7, sequence (Q96QZ7 1-106): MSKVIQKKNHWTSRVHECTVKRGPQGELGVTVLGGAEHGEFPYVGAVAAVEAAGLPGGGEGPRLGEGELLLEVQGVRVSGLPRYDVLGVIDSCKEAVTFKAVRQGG
Binder,"pKd (PARD3B_1, Q8TEW8)","pKd (GIPC2, Q8TF65)","pKd (SHANK1, Q9Y566)","pKd (MAGI2_6, Q86UL8)","pKd (SCRIB_3, Q14160)","pKd (DFNB31_1, Q9P202)","pKd (NHERF2_2, Q15599)","pKd (LNX1_1, Q8TBB1)","pKd (PDZD7_3, Q9H5P4)","pKd (DLG4_1, P78352)","pKd (Inadl_9, Q8NI35)","pKd (SNTG2, Q9NY99)","pKd (GRASP, Q7Z6J2)","pKd (LNX2_2, Q8N448)","pKd (LDB3, O75112)","pKd (PTPN13_1, Q12923)","pKd (IL16_1, Q14005)","pKd (GRIP1_4, Q9Y3R0)","pKd (SIPA1L2, Q9P2F8)","pKd (MPP2, Q14168)",other results
"SGDGKTSVWI [GJC1, P36383]",4.77,below the threshold,3.55,3.73,4.21,3.48,3.98,below the threshold,below the threshold,below the threshold,3.85,below the threshold,below the threshold,5.42,below the threshold,below the threshold,below the threshold,below the threshold,below the threshold,below the threshold,"pKd (GRID2IP_2, A4D2P6): 4.33; pKd (DFNB31_2, Q9P202): below the threshold; pKd (NHERF4_1, Q86UT5-2): 3.57; pKd (CARD11, Q9BXL7): below the threshold; pKd (MAGI1_1, Q96QZ7): below the threshold"
"GNDPDRGTSI [GRID2, O43424]",below the threshold,below the threshold,3.54,3.58,4.29,4.46,3.66,3.67,4.1,below the threshold,below the threshold,below the threshold,below the threshold,below the threshold,below the threshold,below the threshold,below the threshold,below the threshold,below the threshold,below the threshold,"pKd (GRID2IP_2, A4D2P6): 4.16; pKd (DFNB31_2, Q9P202): below the threshold; pKd (NHERF4_1, Q86UT5-2): below the threshold; pKd (CARD11, Q9BXL7): below the threshold; pKd (MAGI1_1, Q96QZ7): below the threshold"
"EPAKETTTNV [SLC2A3, P11169]",below the threshold,below the threshold,3.68,3.97,3.82,3.61,3.69,below the threshold,4.3,4.12,below the threshold,4.03,3.69,4.22,below the threshold,below the threshold,below the threshold,below the threshold,below the threshold,below the threshold,"pKd (GRID2IP_2, A4D2P6): 3.65; pKd (DFNB31_2, Q9P202): below the threshold; pKd (NHERF4_1, Q86UT5-2): below the threshold; pKd (CARD11, Q9BXL7): below the threshold; pKd (MAGI1_1, Q96QZ7): below the threshold"
"DFKHTKSFII [JAM2, P57087]",4.95,below the threshold,below the threshold,below the threshold,3.65,below the threshold,below the threshold,below the threshold,below the threshold,below the threshold,below the threshold,below the threshold,below the threshold,4.7,below the threshold,3.52,below the threshold,below the threshold,below the threshold,below the threshold,"pKd (GRID2IP_2, A4D2P6): below the threshold; pKd (DFNB31_2, Q9P202): below the threshold; pKd (NHERF4_1, Q86UT5-2): below the threshold; pKd (CARD11, Q9BXL7): below the threshold; pKd (MAGI1_1, Q96QZ7): below the threshold"
